Where a chain is given by its changes, count along the chain named. Names may count otherwise.
System: Lenti-X 293T cells
Test: YFP fluorescence quenching anion reporter plate reader assay of engineered receptors stimulated with acetylcholine or a non-native ligand
Format: cell-based
Details: for percent quench of YFP fluorescence, 30 nM TC-6683: TC-6683 30 nM; for percent quench of YFP fluorescence, 300 nM TC-6683: TC-6683 300 nM; for percent quench of YFP fluorescence, 3 uM TC-6683: TC-6683 3 uM; for percent quench of YFP fluorescence, 30 uM TC-6683: TC-6683 30 uM; for percent quench of YFP fluorescence, 100 uM TC-6683: TC-6683 100 uM; for percent quench of YFP fluorescence, 10 uM ach: acetylcholine 10 uM; for percent quench of YFP fluorescence, 100 uM ach: acetylcholine 100 uM; for percent quench of YFP fluorescence, 1 mM ach: acetylcholine 1 mM; for percent quench of YFP fluorescence, 3 mM ach: acetylcholine 3 mM
Source text: To screen these mutant LGICs for those having novel response profiles to ligands, an anion reporter assay was developed to assess the function of the LGICs in a high throughput format. In this assay, cells expressing a YFP reporter whose fluorescence is quenched in the presence of anion are transfected with DNA encoding the channel of interest. Upon exposure to ligand, channels that are activated will flux anion, resulting in a dose-dependent quench of the YFP that can be detected on a plate reader. The greater the quench signal (i.e., the more positive the value), the higher the ligand activity on the receptor is.
Lenti-X 293T cells (LX293T, Clontech) were maintained in DMEM containing 10% FBS and 1% penicillin/streptomycin (Invitrogen). […] Two days before assay, cells were split at a density of 20,000 cells/well in a 96-well tissue culture plate coated with poly-d lysine (Thermo Scientific). The next day, the cells were transiently transfected with 0.1 μg of DNA per well using standard Fugene protocol (Promega). On the day of assay, cells were washed 2 times in 1× extracellular solution (1×ECS: 140 mM NaCl, 5 mM KCl, 1 mM MgCl2, 2 mM CaCl2), 10 mM HEPES, 10 mM glucose, pH 7.2, mOsms 300). After the last wash, 100 μL of 1×ECS was added to the wells and the plate was incubated at 37° C. for 30 min. While incubating the plate, the drugs were diluted to a 2× concentration in 1×ECS-NaI (same components as 1×ECS except the 140 mM NaCl was replaced by 140 mM NaI). The plates were then read on a Flexstation3 (Molecular Devices). Each well, 8 wells at a time, of the plate is read for 2 min using a Flexstation3 (Molecular Devices) as follows: 1) a baseline YFP fluorescence is read for 17 sec, 2) 100 μL of ligand is added, and 3) the changes in YFP fluorescence are then measured every 1.3 sec for 1 minute and 43 seconds. The percent quench is calculated from the average fluorescence of the last 10 seconds of the read divided by the baseline average of the first 15 seconds prior to the ligand addition.
FIGS. 1A-1J provide heat maps of the percent quench of YFP fluorescence following stimulation by various doses of either acetylcholine or the non-native ligand as indicated in the Figures. CODA71 (SEQ ID NO: 33) was used as a control, and CODA75 (SEQ ID NO: 29, a non-responding chimeric engineered receptor) was used as the negative control. Quenching of the fluorescence signal, as indicated by blue shaded cells, indicate the level of engineered receptor activation by the non-native ligand at that concentration.

B1: CODA330: engineered chimeric LGIC receptor, L131F in SEQ ID NO: 33 (protein)
chain: MRCSPGGVWLALAASLLHVSLQGEFQRKLYKELVKNYNPLERPVANDSQPLTVYFSLSLLQIMDVDEKNQVLTTNIWLQMSWTDHYLQWNVSEYPGVKTVRFPDGQIWKPDILLYNSADERFDATFHTNVFVNSSGHCQYLPPGIFKSSCPMDLKNFPMDVQTCKLKFGSWSYGGWSLDLQMQEADISGYIPNGEWDLVGIPGKRSERFYECCKEPYPDVTFTVTMRRRMGYYLIQMYIPSLLIVILSWISFWINMDAAPARVGLGITTVLTMTTQSSGSRASLPKVSYVKAIDIWMAVCLLFVFSALLEYAAVNFVSRQHKELLRFRRKRRHHKSPMLNLFQEDEAGEGRFNFSAYGMGPACLQAKDGISVKGANNSNTTNPPPAPSKSPEEMRKLFIQRAKKIDKISRIGFPMAFLIFNMFYWIIYKIVRREDVHNQ
modifications: synthetic sequence of chimeric LGIC
YFP fluorescence quenching using CNL001 (1 nM CNL001, first column): 76.289% | YFP fluorescence quenching using CNL001 (1 nM CNL001, second column): 78.896% | YFP fluorescence quenching using TC-5619/Bradanicline (1 nM brd): −12.4% | YFP fluorescence quenching using TC-5619/Bradanicline (3 nM brd): 25.12% | YFP fluorescence quenching using Varenicline (3 nM var, first column): −3.016 | YFP fluorescence quenching using Varenicline (3 nM var, second column): −1.452 | YFP fluorescence quenching using CNL001 (10 nM CNL001, first column): 79.339% | YFP fluorescence quenching using CNL001 (10 nM CNL001, second column): 80.245% | YFP fluorescence quenching using TC-5619/Bradanicline (10 nM brd): 72.19% | YFP fluorescence quenching using TC-5619/Bradanicline (30 nM brd): 76.35% | YFP fluorescence quenching using Facinicline (30 nM fac): 2.9 | YFP fluorescence quenching using Varenicline (30 nM var, first column): −0.193 | YFP fluorescence quenching using Varenicline (30 nM var, second column): −1.853 | YFP fluorescence quenching using CNL001 (50 nM CNL001, first column): 80.831% | YFP fluorescence quenching using CNL001 (50 nM CNL001, second column): 80.605% | YFP fluorescence quenching using ABT-126 (50 nM abt): −16.22% | YFP fluorescence quenching using CNL001 (100 nM CNL001, first column): 81% | YFP fluorescence quenching using CNL001 (100 nM CNL001, second column): 80.663% | YFP fluorescence quenching using CNL002 (100 nM CNL002): −3.76% | YFP fluorescence quenching using ABT-126 (100 nM abt): −11.89% | YFP fluorescence quenching using AZD-0328 (100 nM azd0328): 27.56% | YFP fluorescence quenching using TC-5619/Bradanicline (100 nM brd): 78.94% | YFP fluorescence quenching using ABT-126 (300 nM abt): 39.23% | YFP fluorescence quenching using AZD-0328 (300 nM azd0328): 73.35% | YFP fluorescence quenching using TC-5619/Bradanicline (300 nM brd): 77.06% | YFP fluorescence quenching using Facinicline (300 nM fac): 74.96 | YFP fluorescence quenching using Varenicline (300 nM var, first column): 6.915 | YFP fluorescence quenching using Varenicline (300 nM var, second column): 6.513 | YFP fluorescence quenching using Varenicline (500 nM var, first column): 27.593 | YFP fluorescence quenching using Varenicline (500 nM var, second column): 29.863 | YFP fluorescence quenching using CNL001 (1 uM CNL001, first column): 81.293% | YFP fluorescence quenching using CNL001 (1 uM CNL001, second column): 81.428% | YFP fluorescence quenching using CNL002 (1 uM CNL002): 68.51% | YFP fluorescence quenching using ABT-126 (1 uM abt): 66.5% | YFP fluorescence quenching using TC-5619/Bradanicline (1 uM brd): 78.61% | YFP fluorescence quenching using TC-6987 (1 uM tc6987): 53.37 | YFP fluorescence quenching using Varenicline (1 uM var, first column): 67.499 | YFP fluorescence quenching using Varenicline (1 uM var, second column): 65.57 | YFP fluorescence quenching using Facinicline (10 uM fac): 81.97 | YFP fluorescence quenching using TC-6987 (10 uM tc6987): 74.23 | YFP fluorescence quenching using CNL002 (30 uM CNL002): 77.77% | YFP fluorescence quenching using AZD-0328 (30 uM azd0328): 77.14% | YFP fluorescence quenching using Facinicline (30 uM fac): 78.31 | YFP fluorescence quenching using TC-6987 (500 uM tc6987): 72.25 | percent quench of YFP fluorescence, 30 nM TC-6683: −22.26% | percent quench of YFP fluorescence, 300 nM TC-6683: −18.89% | percent quench of YFP fluorescence, 3 uM TC-6683: −9.45% | percent quench of YFP fluorescence, 30 uM TC-6683: −9.23% | percent quench of YFP fluorescence, 100 uM TC-6683: −10.75% | percent quench of YFP fluorescence, 10 uM ach: 11.07% | percent quench of YFP fluorescence, 100 uM ach: 43.34% | percent quench of YFP fluorescence, 1 mM ach: 77.52% | percent quench of YFP fluorescence, 3 mM ach: 74.89%

B2: CODA333: engineered chimeric LGIC receptor, L131S in SEQ ID NO: 33 (protein)
chain: B1 chain with F131S
modifications: synthetic sequence of chimeric LGIC
YFP fluorescence quenching using CNL001 (1 nM CNL001, first column): 76.165% | YFP fluorescence quenching using CNL001 (1 nM CNL001, second column): 78.463% | YFP fluorescence quenching using TC-5619/Bradanicline (1 nM brd): −0.85% | YFP fluorescence quenching using TC-5619/Bradanicline (3 nM brd): −2.05% | YFP fluorescence quenching using Varenicline (3 nM var, first column): −4.782 | YFP fluorescence quenching using Varenicline (3 nM var, second column): 1.048 | YFP fluorescence quenching using CNL001 (10 nM CNL001, first column): 79.349% | YFP fluorescence quenching using CNL001 (10 nM CNL001, second column): 78.238% | YFP fluorescence quenching using TC-5619/Bradanicline (10 nM brd): −2.8% | YFP fluorescence quenching using TC-5619/Bradanicline (30 nM brd): −2.07% | YFP fluorescence quenching using Facinicline (30 nM fac): 6.27 | YFP fluorescence quenching using Varenicline (30 nM var, first column): 2.084 | YFP fluorescence quenching using Varenicline (30 nM var, second column): 5.022 | YFP fluorescence quenching using CNL001 (50 nM CNL001, first column): 80.221% | YFP fluorescence quenching using CNL001 (50 nM CNL001, second column): 81.789% | YFP fluorescence quenching using ABT-126 (50 nM abt): −20.99% | YFP fluorescence quenching using CNL001 (100 nM CNL001, first column): 81.855% | YFP fluorescence quenching using CNL001 (100 nM CNL001, second column): 80.766% | YFP fluorescence quenching using CNL002 (100 nM CNL002): −15.44% | YFP fluorescence quenching using ABT-126 (100 nM abt): −16.21% | YFP fluorescence quenching using AZD-0328 (100 nM azd0328): 38.49% | YFP fluorescence quenching using TC-5619/Bradanicline (100 nM brd): 30.34% | YFP fluorescence quenching using ABT-126 (300 nM abt): −13.34% | YFP fluorescence quenching using AZD-0328 (300 nM azd0328): 67.13% | YFP fluorescence quenching using TC-5619/Bradanicline (300 nM brd): 50.56% | YFP fluorescence quenching using Facinicline (300 nM fac): 69.8 | YFP fluorescence quenching using Varenicline (300 nM var, first column): 12.162 | YFP fluorescence quenching using Varenicline (300 nM var, second column): 12.979 | YFP fluorescence quenching using Varenicline (500 nM var, first column): 29.238 | YFP fluorescence quenching using Varenicline (500 nM var, second column): 25.614 | YFP fluorescence quenching using CNL001 (1 uM CNL001, first column): 81.707% | YFP fluorescence quenching using CNL001 (1 uM CNL001, second column): 82.665% | YFP fluorescence quenching using CNL002 (1 uM CNL002): 15.21% | YFP fluorescence quenching using ABT-126 (1 uM abt): 4.96% | YFP fluorescence quenching using TC-5619/Bradanicline (1 uM brd): 72.42% | YFP fluorescence quenching using TC-6987 (1 uM tc6987): −3.87 | YFP fluorescence quenching using Varenicline (1 uM var, first column): 43.863 | YFP fluorescence quenching using Varenicline (1 uM var, second column): 39.346 | YFP fluorescence quenching using TC-6987 (3 uM tc6987): −20.2 | YFP fluorescence quenching using TC-6987 (5 uM tc6987): −15.25 | YFP fluorescence quenching using Facinicline (10 uM fac): 80.07 | YFP fluorescence quenching using TC-6987 (10 uM tc6987): 4.92 | YFP fluorescence quenching using AZD-0328 (30 uM azd0328): 80.61% | YFP fluorescence quenching using Facinicline (30 uM fac): 81.35 | YFP fluorescence quenching using TC-6987 (30 uM tc6987): 14.75 | YFP fluorescence quenching using TC-6987 (50 uM tc6987): 21.33 | YFP fluorescence quenching using TC-6987 (100 uM tc6987): 29.7 | YFP fluorescence quenching using TC-6987 (300 uM tc6987): 20.79 | YFP fluorescence quenching using TC-6987 (500 uM tc6987): 44.37 | percent quench of YFP fluorescence, 30 nM TC-6683: −23.88% | percent quench of YFP fluorescence, 300 nM TC-6683: −21.46% | percent quench of YFP fluorescence, 3 uM TC-6683: −21.07% | percent quench of YFP fluorescence, 30 uM TC-6683: −16.15% | percent quench of YFP fluorescence, 100 uM TC-6683: −18.96% | percent quench of YFP fluorescence, 10 uM ach: −10.11% | percent quench of YFP fluorescence, 100 uM ach: −10.05% | percent quench of YFP fluorescence, 1 mM ach: 32.11% | percent quench of YFP fluorescence, 3 mM ach: 57.37%

Reference: patent US20240317834A1, “COMPOSITIONS AND METHODS FOR NEUROLOGICAL DISEASES” (CODA BIOTHERAPEUTICS, INC., priority 2020, published 2024)
